In publication PMC4325230 (Stem Cell Reports, 2015):

Biological target: EGF receptor (UniProt P00533 25-645)
Assay: MST

B1: EGFL7 (natural protein, UniProt Q9UHF1 24-273, looked up)
chain: YRPGRRVCAVRAHGDPVSESFVQRVYQPFLTTCDGHRACSTYRTIYRTAYRRSPGLAPARPRYACCPGWKRTSGLPGACGAAICQPPCRNGGSCVQPGRCRCPAGWRGDTCQSDVDECSARRGGCPQRCVNTAGSYWCQCWEGHSLSADGTLCVPKGGPPRVAPNPTGVDSAMKEEVQRLQSRVDLLEEKLQLVLAPLHSLASQALEHGLPDPGSLLVHSFQQLGRIDSLSEQISFLEEQLGSCSCKKDS
Kd: 384 ± 76.5 nM
